Results taken from publication PMC11997057, “PIN1-SUMO2/3 motif suppresses excessive RNF168 chromatin accumulation and ubiquitin signaling to promote IR resistance” (Nature Communications, 2025).
Non-standard residues stand in square brackets, D forms with d. No end group written: not given here. pT = C[C@@H](OP(=O)(O)O)[C@H](N)C(=O)O

Tests used:
PIN1 = PIN1 (UniProt Q13526); assay: native mass spectrometry, 1:5 protein:peptide; settings: reference: unphosphorylated peptide; sites T208
PIN1 WW domain = PIN1 WW domain (UniProt Q13526); assay: GST pull-down from cell lysate; settings: reference: myc-RNF168 wild type; sites T208
[1] = biological target: T1, full-length PIN1 (recombinant, tag cleaved) (UniProt Q13526 1-163); assay: native MS; PIN1 2.5 uM and peptide 12.5 uM (1:5 molar ratio) incubated on ice in 100 mM ammonium acetate pH 6.8; nanoelectrospray, positive mode; settings: both partners purified
T1 construct: peptidyl-prolyl isomerase PIN1, full length; also called recombinant PIN1; tag-cleaved PIN1; source: E. coli Rosetta 2(DE3) pLysS, auto-induction, purified (IMAC), tag cleaved with TEV protease; not shown: His6, N-terminal, cleaved

| Molecule | binding result [1] | other results |
| --- | --- | --- |
| RNF168 204-210 (from UniProt Q8IYW5) pT208 peptide |  | binding against the reference (PIN1): stronger |
| RNF168 (from UniProt Q8IYW5) T208A |  | binding against the reference (PIN1 WW domain): weaker |
| SDPV[pT]PK (end groups not known; also called phospho-RNF168 peptide; pT208-RNF168 peptide; source: synthetic peptide, bought: GenScript Biotech) [phosphorylated RNF168 peptide S204-K210, SDPV(pT)PK] | binds |  |
| SDPVTPK (end groups not known; also called non-phosphorylated peptide of the T208 motif; source: synthetic peptide, bought: GenScript Biotech) [unphosphorylated RNF168 peptide S204-K210] | binds |  |
